B1: HDV Ribozyme (parent)
chain: GGCCGGCAUGGUCCCAGCCUCCUCGCUGGCGCCGGCUGGGCAACAUUCCGAGGGGACCGUCCCCUCGGUAAUGGCGAAUGGGACCCA

This data set covers variants of B1. Kind of data set: self-cleavage, relative activity (ratio to wild type); higher = more cleavage; co-transcriptional.
Turning to C30U A77U, the self-cleavage was 0.215.

On to G31C C61U, for which the self-cleavage is 0.262.

For A8U C85G, the self-cleavage was 0.883.

On to G29C U47G, for which the self-cleavage was 0.

Regarding G76C A83U, the self-cleavage came out at 0.464.

On to U47C C84G, for which the self-cleavage turned out to be 0.604.

For G17U C75A, the self-cleavage came out at 0.198.

In the case of G17A U60G, the self-cleavage turned out to be 0.712.

Regarding A56U C57A, the self-cleavage amounted to 0.966.

In the case of G55C A56C, the self-cleavage is 0.969.

For the variant G55C A56U, the self-cleavage worked out at 1.01.

With C32A C75A, the self-cleavage is 0.0723.

Turning to U9C U12C, the self-cleavage came out at 0.119.

Turning to C64G G81C, the self-cleavage stood at 0.208.

In the case of C3G G38A, the self-cleavage came to 0.0386.

For G54U C84A, the self-cleavage stood at 0.724.

For C62U G67C, the self-cleavage amounted to 0.923.

Consider G17C U23A, for which the self-cleavage came out at 0.344.

As to G2A C66U, the self-cleavage stood at 0.192.

As to C13G C21A, the self-cleavage was 0.

For U23A G59A, the self-cleavage worked out at 1.12.

As to C4G A56G, the self-cleavage worked out at 0.249.

Regarding G39A G68U, the self-cleavage was 0.554.

Regarding C7G C19A, the self-cleavage amounted to 0.0831.

On to A42G C64G, for which the self-cleavage was determined as 0.332.

For the variant C30G U47A, the self-cleavage came out at 0.0354.

Take A43G A71U: the self-cleavage amounted to 0.95.

For the variant G55U U79A, the self-cleavage was 0.635.

With G25C G55A, the self-cleavage stood at 0.158.

Consider C24G U60C, for which the self-cleavage is 0.277.

For the variant A56G C66U, the self-cleavage stood at 0.937.

For the variant G17A G68C, the self-cleavage worked out at 0.575.

Take C14A G34A: the self-cleavage was determined as 0.185.

U12C G25A: the self-cleavage turned out to be 0.17.

As to G5C C21A, the self-cleavage was 0.0831.

On to G17A A56U, for which the self-cleavage is 0.528.

As for U27A C62U, the self-cleavage is 0.935.

Regarding C41G U69A, the self-cleavage amounted to 0.609.

With A56U C75G, the self-cleavage is 0.151.

Take A42G U47A: the self-cleavage was 0.391.

With C63A C86U, the self-cleavage came out at 0.784.

For C44U U72C, the self-cleavage was determined as 0.779.

For the variant G55A C63U, the self-cleavage came to 0.913.

Regarding C57G A78C, the self-cleavage is 0.0959.

On to C30A C49A, for which the self-cleavage was 0.405.

For A42C U46C, the self-cleavage was found to be 0.214.

On to C26G C85A, for which the self-cleavage was 1.06.

On to A45C U79G, for which the self-cleavage came out at 0.293.

Turning to A43C G73C, the self-cleavage was 0.309.

In the case of C18U U72A, the self-cleavage came to 0.175.

On to C18U A45U, for which the self-cleavage was determined as 0.361.

As to C22A A42C, the self-cleavage was 0.

As to C33U G54A, the self-cleavage was found to be 1.05.

Regarding C66G G80A, the self-cleavage turned out to be 0.338.

As for G35U U65A, the self-cleavage stood at 0.35.

C7A U79A: the self-cleavage was determined as 0.249.

As to C44A A70C, the self-cleavage stood at 0.465.

In the case of G5C C33G, the self-cleavage was determined as 1.43.

With G17C G59A, the self-cleavage came out at 0.231.

Turning to G31U A77C, the self-cleavage worked out at 0.0489.

For G39C C58A, the self-cleavage was found to be 0.521.

As to C4G C7A, the self-cleavage was 0.

Regarding G40U G73U, the self-cleavage worked out at 0.424.

For the variant G34C U37G, the self-cleavage came out at 0.

Consider C26U C41G, for which the self-cleavage was determined as 1.02.

U46G A78G: the self-cleavage worked out at 0.443.

In the case of C21A G80C, the self-cleavage is 0.0496.

Take C24U C58G: the self-cleavage was 0.811.

For the variant G1C A78C, the self-cleavage was found to be 0.

In the case of C22A G38U, the self-cleavage came out at 0.554.

As to U27C U37C, the self-cleavage was 0.856.

Take C13G C15G: the self-cleavage turned out to be 0.122.

Turning to C41G A83C, the self-cleavage came out at 0.123.

On to C7A C64A, for which the self-cleavage turned out to be 0.227.

As to U23C C64U, the self-cleavage worked out at 0.786.

As for C30U C58A, the self-cleavage amounted to 0.697.

In the case of C61U A77G, the self-cleavage was 1.12.

Turning to U20G C26U, the self-cleavage came to 0.256.

As to U46C U79A, the self-cleavage was 0.798.

In the case of G2U G35U, the self-cleavage turned out to be 0.0318.

For the variant C13A A77U, the self-cleavage stood at 0.0739.

As to C44U C66G, the self-cleavage came to 0.895.

Regarding C4G U46C, the self-cleavage was determined as 0.

In the case of U20G C30A, the self-cleavage amounted to 0.0378.

Take C62G G76U: the self-cleavage came to 1.03.

Regarding G25C A43U, the self-cleavage came out at 0.147.

With C14U C32U, the self-cleavage came to 0.86.

For the variant G10C G28C, the self-cleavage is 0.107.

Consider C24A A70G, for which the self-cleavage is 0.804.

With U12G C84G, the self-cleavage turned out to be 0.256.

For the variant G55U C62U, the self-cleavage turned out to be 0.925.

Regarding C15U A77U, the self-cleavage was determined as 0.246.

On to C41G G67A, for which the self-cleavage was 0.456.

As for G74A U79C, the self-cleavage was determined as 0.118.

Turning to G1U A56C, the self-cleavage stood at 0.494.

For A77G C85G, the self-cleavage came out at 0.655.

Turning to G59U A83U, the self-cleavage is 0.486.

With G53U G80C, the self-cleavage is 0.304.

Regarding U27A G31U, the self-cleavage was found to be 0.244.

Turning to G31U U72C, the self-cleavage amounted to 0.163.

With U23A C33A, the self-cleavage was 0.237.

On to G38U A45C, for which the self-cleavage was 0.181.

Turning to C3G G34C, the self-cleavage came out at 0.192.

For C36U G55A, the self-cleavage is 0.612.

Consider G6C C7A, for which the self-cleavage came to 0.772.

Turning to U9G A43G, the self-cleavage turned out to be 0.475.

Regarding U47C G81C, the self-cleavage amounted to 0.151.

With C22G G55C, the self-cleavage was 0.109.

For the variant C14U C75A, the self-cleavage is 0.208.

U20A G73U: the self-cleavage was 0.0354.

Take G25C C33A: the self-cleavage was 0.

On to C4A A8U, for which the self-cleavage was determined as 0.0723.

As for G6C A45C, the self-cleavage turned out to be 0.185.

G38A A71G: the self-cleavage worked out at 0.177.

With G39C U65C, the self-cleavage came to 0.374.

With C62G G82C, the self-cleavage is 0.204.

C49U A83C: the self-cleavage was found to be 0.615.

As to C14A U65C, the self-cleavage amounted to 0.864.

As for C7G G73U, the self-cleavage stood at 0.0831.

Turning to A78U G81C, the self-cleavage is 0.213.

On to U9C U60A, for which the self-cleavage is 0.862.

A43G G50A: the self-cleavage worked out at 0.502.

C30U G54U: the self-cleavage was determined as 0.597.

C22A U69C: the self-cleavage came out at 0.393.

As to U20A G52C, the self-cleavage is 0.0449.

Regarding G1A U23G, the self-cleavage stood at 0.

For G39U C85G, the self-cleavage stood at 0.69.

As to U47G A78G, the self-cleavage was 1.19.

For C14A C84A, the self-cleavage is 0.458.

For C13U A45U, the self-cleavage came out at 0.198.

On to C3A G52U, for which the self-cleavage is 0.404.

With G29U U65A, the self-cleavage is 0.175.

As for U60G A77G, the self-cleavage was determined as 1.09.

Take G17C C64G: the self-cleavage came out at 0.298.

Consider C62U U79A, for which the self-cleavage stood at 0.95.

For the variant C44G C49G, the self-cleavage turned out to be 0.68.

For the variant G10A C58A, the self-cleavage was found to be 0.816.

Turning to A16C A71U, the self-cleavage is 0.623.

A43C C44U: the self-cleavage was 0.923.

As for U23C C32U, the self-cleavage is 0.587.

Regarding G40A A78C, the self-cleavage turned out to be 0.233.

With C22G A83G, the self-cleavage was determined as 0.126.

Consider C30A U72C, for which the self-cleavage was 0.142.

With G50U A83U, the self-cleavage is 0.683.

As for U23G A83U, the self-cleavage worked out at 0.107.

For G25C A45G, the self-cleavage worked out at 0.104.

Turning to C64U A83G, the self-cleavage stood at 1.02.

For the variant C26U G31A, the self-cleavage was determined as 0.819.

For G67C G76C, the self-cleavage worked out at 1.09.

As for G6U A51U, the self-cleavage was found to be 0.739.

In the case of G28U C86A, the self-cleavage worked out at 0.

For G31C G54C, the self-cleavage is 0.193.

In the case of U37A G38C, the self-cleavage was 0.0923.

Regarding G11U C19G, the self-cleavage is 0.058.

For G17C C57U, the self-cleavage was 0.256.

As to U37C G38A, the self-cleavage turned out to be 0.0354.

Take C21G G55C: the self-cleavage was determined as 0.135.

G10U A78U: the self-cleavage was determined as 0.0554.

For the variant C14U G28U, the self-cleavage was 0.285.

For the variant C21U G59A, the self-cleavage was 0.154.

Consider G10U C58U, for which the self-cleavage was 0.982.

On to G17C G40C, for which the self-cleavage turned out to be 0.

Turning to U12A C22G, the self-cleavage is 0.0405.

In the case of C64A C86G, the self-cleavage came to 0.923.

Regarding G54A A83G, the self-cleavage stood at 0.692.

For C64A C66U, the self-cleavage is 0.567.

For C15A G76A, the self-cleavage came out at 0.712.

These data come from the RNAGym collection of RNA variant scans (doi:10.7554/elife.80360).
